The target of this experiment is LGR6 (UniProt Q9HBX8). Put plainly: cell-based or functional assay.
Sequence of UniProt Q9HBX8 (Q9HBX8 25-967): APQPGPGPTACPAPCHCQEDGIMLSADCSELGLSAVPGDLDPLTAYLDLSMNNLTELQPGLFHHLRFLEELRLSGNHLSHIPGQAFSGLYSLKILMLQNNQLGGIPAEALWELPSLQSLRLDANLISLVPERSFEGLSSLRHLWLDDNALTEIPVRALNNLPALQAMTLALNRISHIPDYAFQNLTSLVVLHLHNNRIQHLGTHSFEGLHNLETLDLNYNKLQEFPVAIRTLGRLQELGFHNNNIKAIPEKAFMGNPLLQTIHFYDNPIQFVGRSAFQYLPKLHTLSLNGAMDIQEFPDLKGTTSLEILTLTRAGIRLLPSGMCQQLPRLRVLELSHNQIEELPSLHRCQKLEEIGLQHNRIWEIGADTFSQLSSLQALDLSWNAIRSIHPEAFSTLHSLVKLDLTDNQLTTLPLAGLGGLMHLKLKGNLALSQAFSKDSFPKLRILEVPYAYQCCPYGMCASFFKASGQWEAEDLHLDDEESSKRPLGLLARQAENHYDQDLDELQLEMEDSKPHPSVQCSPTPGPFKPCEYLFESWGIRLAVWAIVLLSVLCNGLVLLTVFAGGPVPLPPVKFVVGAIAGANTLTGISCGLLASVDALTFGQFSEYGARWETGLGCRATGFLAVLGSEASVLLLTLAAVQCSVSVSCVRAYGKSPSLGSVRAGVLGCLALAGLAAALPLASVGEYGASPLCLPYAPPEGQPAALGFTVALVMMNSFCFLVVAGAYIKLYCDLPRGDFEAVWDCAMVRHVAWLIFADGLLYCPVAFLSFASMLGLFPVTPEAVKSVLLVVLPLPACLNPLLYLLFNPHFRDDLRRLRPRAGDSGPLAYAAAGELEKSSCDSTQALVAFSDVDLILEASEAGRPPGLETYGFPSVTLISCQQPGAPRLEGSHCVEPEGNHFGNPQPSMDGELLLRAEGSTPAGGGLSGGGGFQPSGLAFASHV

Substance “MBP-RSPO1-MMAE (from UniProt Q2MKA7 21-145)” yielded an IC50 of cell killing on LGR6-overexpressing HEK-LGR6-2 cells (10 days exposure, CCK-8 viability) of 0.08 nM and a fold potency of killing, HEK-LGR6-2 cells against empty vector-transfected HEK-pcDNA cells of 12 fold.

The values above are taken from patent US20240229003A1.
